From US6083712

Biological target: biotin synthase (Escherichia coli) (UniProt P12996)

## ferredoxin(flavodoxin)-NADP+ reductase (from UniProt P28861) (enzyme)
  pmol of biotin produced: 800 pmol

## flavodoxin (from UniProt P61949)
  pmol of biotin produced: 800 pmol
